Test results: publication PMC6196983, “The Native Monomer of Bacillus Pumilus Ribonuclease Does Not Exist Extracellularly” (BioMed Research International, 2018)

Target: the molecule itself
Assay: NMR self-diffusion (hydrodynamic radius); 1.5 mg/ml binase in D2O at pH 3.0 and pH 6.4; BPP-LED stimulated echo, 600.13 MHz; radius from the Stokes-Einstein equation compared with the theoretical monomer size of 1.6 nm

B1: binase, secreted guanyl-preferring ribonuclease of Bacillus pumilus (enzyme, UniProt P00649 54-162, looked up)
chain: AVINTFDGVADYLIRYKRLPDNYITKSQASALGWVASKGNLAEVAPGKSIGGDVFSNREGRLPSASGRTWREADINYVSGFRNADRLVYSSDWLIYKTTDHYATFTRIR
notes: binase, secreted ribonuclease of Bacillus pumilus (formerly Bacillus intermedius); also called B. pumilus secreted RNase; Bacillus intermedius RNase; source: isolated from B. pumilus culture fluid, purified
stoichiometry N: 2
